# Measurements taken from the nanobody polyreactivity screen of Harvey et al. (2022).
# Assay: yeast display, Sf9 membrane polyspecificity reagent, FACS + sequencing; frameworks hold sequencing errors
# Method in brief: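 Galactose-induced (36–48 hours) yeast carrying a synthetic nanobody display library were exposed to 10% biotinylated, detergent-solubilized Sf9 membrane reagent at 4 °C for 1 hour. FACS followed streptavidin microbead enrichment, using low and high (top ~1%) gates for expression (anti-HA) and reagent binding (streptavidin). Colony PCR, MiSeq 2 × 250 sequencing and CDR-length filtering followed. Labels for polyreactivity reflect the gate of origin.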
row,Sequence,polyreactivity (PSR sort gate)
1,QVQLVESGGGLVQAGGSLRLSCAASGRTFVPYAMGWYRQAPGKERELVAAITWSGGRTRYADSVKGRFTISRDNAKNTVFLQMNSLKPEDTAVYYCARYYWLYSSSYDYWGQGTQVTVSS,high polyreactivity
2,QVQLVESGGGLVQAGGSLRLSCAASGRTFVPYAMGWYRQAPWKERELVASISSSGGSTYYADSVKGRFTISRDNAKNTVYLQMNSLKPEDTAVYYCATADRWSSSYYRSVRWYHYDYWGQGTQVTVSS,low polyreactivity
3,QVQLVESGGGLVQAGGSLRLSCAASGRTFVPYTMGWYRQAPGKERELVAAISRSGARTYYADSVKGRFTISRDNAKNTVYLQMNSLKPEDTAVYYCVVIARYGYDYWGQGTQVTVSS,high polyreactivity
4,QVQLVESGGGLVQAGGSLRLSCAASGRTFVQYAMGWYRQAPGKERELVAAISDRGGNTYYADSVKGRFTISRDNAKNTVYLQMNSLKPEDTAVYYCAAKIALDNDYWGQGTQVTVSS,high polyreactivity
5,QVQLVESGGGLVQAGGSLRLSCAASGRTFVRNAMGWYRQAPGKERELVAAITRSGGSTYYADSVKGRFTISRDNAKNTVYLQMNSLKPEDTAVYYCSARPPYRVGIVPLGRREYYWGQGTQVTVSS,high polyreactivity
6,QVQLVESGGGLVQAGGSLRLSCAASGRTFVRYAMGWYRQAPGKEREFVAAISWSTGSTYFADSVKGRFTISRDNAKNTVYLQMNSLKPEDTAVYYCAADGYTTYWLLYEYDYWGQGTQVTVSS,low polyreactivity
7,QVQLVESGGGLVQAGGSLRLSCAASGRTFVRYAMGWYRQATGNERELVAAISTSGGNTYYADSVKGRFSISRDNAKNTVYLQMNSLKPEDTAVYYCANDRGPNAKFDDWGQGTQVTVSS,low polyreactivity
8,QVQLVESGGGLVQAGGSLRLSCAASGRTFVSNAMGWYRQAPGKERELVAGINWTDDSTYYADSVKGRFTISRDNAKNTVYLQMNSLKPEDTAVYYCAADSWEFAWPRFDYWGQGTQVTVSS,low polyreactivity
9,QVQLVESGGGLVQAGGSLRLSCAASGRTFVSTAMGWYRQAPGKERELVAGMSQRGGSTYYADSVKGRFTISRDNAKNTVYLHMNSMKPEDTAVYYCNAVSRAYFYGAYGPYTRFNYWGQGTQVTVSS,high polyreactivity
10,QVQLVESGGGLVQAGGSLRLSCAASGRTFVSYAMGWYRQAPGKERELVAAISSSGGSTYYADSVKGRFTISRDNAKNTVYLQMNSLKPEDTAVYYCAADTTTRAYVEMDYWGQGTQVTVSS,low polyreactivity
11,QVQLVESGGGLVQAGGSLRLSCAASGRTFVSYDMGWYRQAPGKERELVATISWTAGSTYYADSVKGRFTISRDNAKNTVYLQMNSLKPEDTAVYYCAADVFYSIYDYWGQGTQVTVSS,low polyreactivity
12,QVQLVESGGGLVQAGGSLRLSCAASGRTFVVNAKGWYRQAPGKEREFVAAISYRGDSTYYSDSVKGRFTISRDNAKNTVYLQMNSLKPEDTAVYYCAARVLGPGRRFYYWVQGTQVTVSS,high polyreactivity
13,QVQLVESGGGLVQAGGSLRLSCAASGRTFVVNDMGWYRQAPGKERELVAAINYNAGSTFYADSVKGRFTISRYNAKKTVYYQMNSLKPEDTAVYYCATDVYGYVEYDYWGQGTQVTVSS,low polyreactivity
14,QVQLVESGGGLVQAGGSLRLSCAASGRTFVYNAMGWYRQAPGKEREFVAAISDGGGDTYYADSVKGRFTISRDNAKNTVYLQMNSLKPEDTAVYYCNVEWQQPGYAFDYWGQGTQVTVSS,low polyreactivity
15,QVQLVESGGGLVQAGGSLRLSCAASGRTFVYNAMGWYRQAPGKERELVAAISFGGGNTYYADSVKGRFTISRDNAKNTVYLQMNSLKPEDTAVYYCAKAYIGYWGASWYYAYDYWGQGTQVTVSS,low polyreactivity
16,QVQLVESGGGLVQAGGSLRLSCAASGRTFVYNAMGWYRQAPGKERELVAAITTNGGSTYYADSVKGRFTISRDNSKNTVYLQMNSLKPEDTAVYYCAADYSLPWSWLYEYWGQGTQVTVSS,low polyreactivity

row,Sequence,polyreactivity (PSR sort gate)
1,QVQLVESGGGLVQAGGSLRLSCAASGRTFVYNGMGSYRQAPGKERELVAAISGSGGSTYYADSVKGRFTISRDNAKNTVYLQMNSLKPEDTAVYYCATRQGYRLYYWGQGTQVTVSS,high polyreactivity
2,QVQLVESGGGLVQAGGSLRLSCAASGRTFVYNTMGWYRQAPGKERELVASISSTGGNTYYSDSVKGRFTISRDNAKNTVYLQMNSLKPEDTAVYYCAAGAWTRGQYYYWGQRTQVTVSS,high polyreactivity
3,QVQLVESGGGLVQAGGSLRLSCAASGRTFVYYAMGWYRQAPGKEREFVAAISRSGGRTSYADSVKGRFTISRDNAKNTVYLQMNSLKPEDTAVYYCAAEKRTQPTSREYYWVQGTQVTVSS,high polyreactivity
4,QVQLVESGGGLVQAGGSLRLSCAASGRTFVYYAMGWYRQAPGKERELVARISYSGGSTYYADSVKGRFTISRDNAKKTVYLQMNSLKPEDTAVYYCSQAGYSPVYGYWGQGTQVSVSS,high polyreactivity
5,QVQLVESGGGLVQAGGSLRLSCAASGRTFVYYAMGWYRQAPGKERELVASISSVGTTKYADSVQGRFTISRANAKNTVYLQMNSLKPEDTAVYYCAAVPLSRNIFDSWGQGTQVTVSS,low polyreactivity
6,QVQLVESGGGLVQAGGSLRLSCAASGRTFVYYDMGWSRPAPGKERELVAAIDSSGSTYYADSVKGRFTISRDNAKNTVYLQMNSLKPEDTAVYYCAAGYWFFPYWYDYWGQGTQVTVSS,high polyreactivity
7,QVQLVESGGGLVQAGGSLRLSCAASGRTFWANAMGWYRPAPGKERELVAAITIGGRTYYADSVKGRFTISRDNAKNTVYLQMNSLKPEDTAVYYCNAGTRRPFPAESGYWGQVTQVTVSS,low polyreactivity
8,QVQLVESGGGLVQAGGSLRLSCAASGRTFWAYAMGWYRPAPGKERELVSAITTSGGSTNYADSVKGRFTISRDNAKNTVYLHMIRLKPEDTAVYYCNADPTYHVVNGVGYWGQGTQVTVSS,low polyreactivity
9,QVQLVESGGGLVQAGGSLRLSCAASGRTFWDYAMGWYRQAPGKEREFVAAINTSGGRTYYADSVKGRFTISRDNAKNTVYLQMNSLKPEDTAVYYCAARTRDRAYDSWGQGTQVTVSS,high polyreactivity
10,QVQLVESGGGLVQAGGSLRLSCAASGRTFWFYGMGWYREAAGKEREFVARISGSGGSTYYADSVKGRFTISRDNAKNTVYLQMNSLKPEDTAVYYCAKDNRYPYPSGLDYWGQGTQVTVSS,high polyreactivity
11,QVQLVESGGGLVQAGGSLRLSCAASGRTFWGYAMGWYRQAPGKERELVATISSTGSTNYAESVKGRFTISRDNAKNTVYFQMNSLKPEATAVYYCNAKRHVYRGWYQRYDYWGQGTQVTVSS,high polyreactivity
12,QVQLVESGGGLVQAGGSLRLSCAASGRTFWINAMGWYRQAPGKERELVAAITRGGRTYADSVKGRFTISRDNAKYTVYLQMNSLKPEDTAVYYCAAESYRLSGHHGYDYWGQCTQVTVSS,high polyreactivity
13,QVQLVESGGGLVQAGGSLRLSCAASGRTFWIYAMGWYRQAPGKEREFVAAISSSGGGTYYADSVKGRFTISRDNAKNTVYLQMNSLKPEDTAVYYCAADDGYSSNEFDYWGQGTQVTVSS,low polyreactivity
14,QVQLVESGGGLVQAGGSLRLSCAASGRTFWIYAMGWYRQAPGKEREFVAAISSSGGGTYYADSVKGRFTISRDNAKNTVYLQMNSLKPEDTAVYYCAKDLYFSKGYYWGQGTQVTVSS,low polyreactivity
15,QVQLVESGGGLVQAGGSLRLSCAASGRTFWIYGMGWYRQAPGKERELVAAITRSGGSTNYADSVKGRFTISRDNAKNTVYLQMKSLKPEDTAVYYCAADTWYPGYYAYDYWGQGTQVTVSS,high polyreactivity
16,QVQLVESGGGLVQAGGSLRLSCAASGRTFWNYAMGWYRQAPGKERELVAVIRFSDGSTYYSDSVKGRFTISRDKAKNTVYLQMNSLKPEDTAVYYCGAKGPRRWGSGFDYWGQGTQVNVSS,low polyreactivity
